Where a SMILES comes first, the peptide text is derived from it. Where no end group is shown, it is not given here. [ ]: non-standard residue; d: D form. The star is where a group is joined. Sta = CC(C)C[C@H](N)[C@@H](O)CC(=O)O; Isovaleryl = CC(C)CC(=O)*
Tests used:
[1] = tested on: protease activity of mucinous cyst fluid sample; test: MSP-MS analysis of protease inhibitor sensitivity in mucinous cyst fluid; type: biochemical, human; conditions: for number of mucinous-specific substrates whose cleavage was inhibited: 1 mM AEBSF, 2 mM 1,10-phenanthroline
Description: (§1) The MSP-MS assay was performed as previously described (34). Cyst fluid was diluted to 100 μg/mL in assay buffer (either pH 7.5 phosphate buffer or pH 3.5 acetate buffer) and pre-incubated for 10 minutes. For analysis of protease inhibitor sensitivity, 1 mM AEBSF (Sigma, A8456), 2 μM E-64 (Sigma, E3132), 2 μM pepstatin (Sigma, P5318), 2 mM 1,10-phenanthroline (Sigma, 131337), or DMSO were included in pre-incubation. The 228 tetradecapeptide library was split into two pools and diluted in assay buffer to a concentration of 1 μM of each peptide. 75 μL of diluted cyst fluid and peptide pools were then combined and incubated at room temperature. 30 μL aliquots were removed after 15 and 60 minutes, protease activity quenched with 8 M guanidinium hydrochloride, and flash-frozen in liquid N2. For recombinant gastricsin (R&D Systems, 6186-AS), cathepsin D (R&D Systems, 1014-AS), and cathepsin E (R&D Systems, 1294-AS), the MSP-MS assay was performed as described above with slight modifications: 10 nM of recombinant protease in pH 3.5 acetate buffer was used and aliquots were removed after 15, 60, and 240 minutes.
(§2) Prior to peptide cleavage site identification by mass spectrometry, samples were desalted using C18 tips (Rainin). Mass spectrometry analysis was carried out with an LTQ Orbitrap XL mass spectrometer coupled to a 10,000 psi nanoACQUITY Ultra Performance Liquid Chromatography (UPLC) System (Waters) for peptide separation by reverse phase liquid chromatography (RPLC). Peptides were separated over a C18 column (Thermo) and eluted by applying a flow rate of 300 nL/min with a 65-minute linear gradient from 2-30% acetonitrile. Survey scans were recorded over a 325-1500 m/z range and the six most intense precursor ions were fragmented by collision-induced dissociation (CID) for MS/MS.
(§3) Raw mass spectrometry data was processed to generate peak lists using MSConvert. Peak lists were then searched in Protein Prospector v. 5.10.0 (35) against a custom database containing the sequences from the 228 tetradecapeptide library. Searches used a mass accuracy tolerance of 20 ppm for precursor ions and 0.8 Da for fragment ions. Variable modifications included N-terminal pyroglutamate conversion from glutamine or glutamate and oxidation of tryptophan, proline, and tyrosine. Searches were subsequently processed using the MSP-xtractor software (http://www.craiklab.ucsf.edu/extractor.html), which extracts the peptide cleavage site and spectral counts of the corresponding cleavage products. Spectral counts were used for the relative quantification of peptide cleavage products.

[2] = tested on: cathepsin E and gastricsin protease activity in cyst fluid; test: Pepstatin inhibition of fluorescent substrate cleavage by mucinous cyst fluid; type: biochemical, human; conditions: fluid from a mucinous cyst, pre-incubation with 2 μM pepstatin; FIG. 11
Description: All fluorescent protease activity assays were performed in triplicate in black, round-bottom 384 well plates. Assays were run for 1 hour in 15 μL of acetate buffer with 0.01% Tween. The pH of the acetate buffer was adjusted to promote activity of either aspartyl protease (pH 3.5 for the cathepsin E substrate and pH 2.0 for the gastricsin substrate). 10 μM of substrate was used for all assays (unless otherwise indicated) and was incubated with either 10 nM of recombinant protease or 50 μg/mL of cyst fluid protein. For kinetic analysis of gastricsin activity, the substrate concentration ranged from 0.1-25 μM. For analysis of inhibitor sensitivity, cyst fluid samples were pre-incubated with 2 μM of pepstatin. Fluorescent substrate cleavage was monitored with a Biotek Synergy HT plate reader using excitation and emission wavelengths of 328 nm and 393 nm, respectively. Selectivity of the recombinant proteases was assessed by comparing the initial velocity of substrate hydrolysis in relative fluorescent units per second (RFU/sec). For cyst fluid samples, the change in endpoint RFU was compared relative to wells that contained substrate, but no cyst fluid.

Cathepsin E [3] = molecular target: T1, Cathepsin E (Homo sapiens, UniProt P14091); test: Fluorescent protease activity assay with recombinant cathepsin E; type: biochemical; parameters: purchased R&D Systems 1294-AS
T1 sequence (P14091 54-396): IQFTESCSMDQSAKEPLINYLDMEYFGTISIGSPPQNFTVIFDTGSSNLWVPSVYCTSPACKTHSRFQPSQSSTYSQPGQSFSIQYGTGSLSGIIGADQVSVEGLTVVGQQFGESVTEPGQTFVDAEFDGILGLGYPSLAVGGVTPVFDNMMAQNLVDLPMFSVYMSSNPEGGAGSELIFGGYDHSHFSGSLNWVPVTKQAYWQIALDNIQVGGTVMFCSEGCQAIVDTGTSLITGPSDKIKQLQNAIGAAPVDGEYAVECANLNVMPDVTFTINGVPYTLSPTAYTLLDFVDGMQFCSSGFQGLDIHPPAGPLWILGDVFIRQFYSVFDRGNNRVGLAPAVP
Description: (§4) Synthesis of internally quenched fluorescent peptides was conducted using Fmoc solid-phase peptide synthesis on a Syro II automated synthesizer (Biotage). Briefly, reactors were charged with Wang resin preloaded with Fmoc-Lys(dinitrophenol) (Anaspec, A23856). Coupling reactions were conducted on a 0.0125 mmol scale in 500 μL of DMF with 5 equivalents of Fmoc amino acid (Anaspec), 4.9 equivalents of HCTU (Anaspec), and 20 equivalents of N-methylmorpholine (NMM). Fmoc deprotection was conducted by incubation with 500 μL 40% 4-methlypiperidine in DMF, followed by 500 μL 20% 4-methlypiperidine in DMF. Substrates were capped with a […] Lys-(7-methoxycoumarin-4-acetic acid)-OH (EMD Millipore, 852095) followed by two D-Arg residues to enhance solubility. Peptides were removed from resin by incubating with 500 μL of cleavage solution (95% trifluoroacetic acid, 2.5% water, 2.5% Triisopropylsilane). […]
(§5) All fluorescent protease activity assays were performed in triplicate in black, round-bottom 384 well plates. […] Fluorescent substrate cleavage was monitored with a Biotek Synergy HT plate reader using excitation and emission wavelengths of 328 nm and 393 nm, respectively. Selectivity of the recombinant proteases was assessed by comparing the initial velocity of substrate hydrolysis in relative fluorescent units per second (RFU/sec). […]

Cathepsin E [4] = molecular target: T1, Cathepsin E; test: Cathepsin E fluorescent substrate assay in patient cyst fluid, mucinous vs nonmucinous cysts; parameters: both proteases are released into cyst fluid in their proforms; from tissue; host or cells: human pancreatic cyst fluid; conditions: differentiating mucinous from nonmucinous cysts; 110 cyst fluid samples; cutoff 1.23-fold change in fluorescence
Source text: (§6) Pancreatic cyst fluid samples were collected from preconsented patients under institutional review board oversight. All patients included in the study underwent surgical resection of their cystic lesion and have a pathologically confirmed diagnosis. The highest grade of dysplasia observed during pathological evaluation of each cystic lesion is reported. Samples were collected either at the time of surgical resection or during diagnostic endoscopic ultrasound prior to resection of the cystic lesion. Cyst fluid samples were split into 100 μL aliquots and frozen to −80° C. within 60 minutes of collection. Samples underwent at most two freeze-thaw cycles prior to experimental analysis. Total cyst fluid protein concentration was determined by the bicinchoninic acid assay. CEA levels were evaluated for the majority of samples, but were unavailable in 21 cases due to limited cyst fluid volume.
(§7) All fluorescent protease activity assays were performed in triplicate in black, round-bottom 384 well plates. Assays were run for 1 hour in 15 μL of acetate buffer with 0.01% Tween. […] Fluorescent substrate cleavage was monitored with a Biotek Synergy HT plate reader using excitation and emission wavelengths of 328 nm and 393 nm, respectively. Selectivity of the recombinant proteases was assessed by comparing the initial velocity of substrate hydrolysis in relative fluorescent units per second (RFU/sec). […]

Gastricsin [5] = molecular target: T2, Gastricsin (Homo sapiens, UniProt P20142); test: Cleavage of peptide substrates by gastricsin (MSP-MS assay); type: biochemical; parameters: purchased R&D Systems 6186-AS; conditions: Target Protease Gastricsin; for Relative Cleavage: relative to the most cleaved substrate (1.00)
T2 sequence (P20142 60-388): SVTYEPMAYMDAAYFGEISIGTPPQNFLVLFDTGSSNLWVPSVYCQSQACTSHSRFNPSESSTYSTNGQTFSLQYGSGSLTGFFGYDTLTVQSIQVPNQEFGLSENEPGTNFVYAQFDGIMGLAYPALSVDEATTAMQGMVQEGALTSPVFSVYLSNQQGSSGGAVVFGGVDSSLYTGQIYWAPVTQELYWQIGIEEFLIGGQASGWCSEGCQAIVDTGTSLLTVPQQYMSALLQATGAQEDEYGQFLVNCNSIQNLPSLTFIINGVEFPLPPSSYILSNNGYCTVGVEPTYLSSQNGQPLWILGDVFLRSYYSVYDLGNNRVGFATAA
Description: as §1, §2, §3

Gastricsin [6] = molecular target: T2, Gastricsin; test: Fluorescent protease activity assay with recombinant gastricsin; type: biochemical; parameters: purchased R&D Systems 6186-AS
Description: as §4, §5

Gastricsin [7] = molecular target: T2, Gastricsin; test: Gastricsin fluorescent substrate assay in patient cyst fluid, mucinous vs nonmucinous cysts; parameters: both proteases are released into cyst fluid in their proforms; from tissue; host or cells: human pancreatic cyst fluid; conditions: differentiating mucinous from nonmucinous cysts; 110 cyst fluid samples; cutoff 1.23-fold change in fluorescence
Source text: as §6, §7

Cathepsin E [8] = molecular target: T1, Cathepsin E; test: Cleavage of peptide substrates by cathepsin E (MSP-MS assay); type: biochemical; parameters: purchased R&D Systems 1294-AS; conditions: Target Protease Cathepsin E; for Relative Cleavage: relative to the most cleaved substrate (1.00)
Description: as §1, §2, §3

[9] = single mucinous cyst fluid sample, FIG. 2A
[10] = single mucinous cyst fluid sample, 2 μM pepstatin, FIG. 2A

Molecule	Total Cleavage (Gastricsin [5])	Relative Cleavage (Gastricsin [5])	Total Cleavage (Cathepsin E [8])	Relative Cleavage (Cathepsin E [8])	also measured
c1cnc2c(c1)ccc1cccnc12 [1,10-phenanthroline]					number of mucinous-specific substrates whose cleavage was inhibited [1, 9]: 3 substrates
Cl.NCCc1ccc(S(=O)(=O)F)cc1 [AEBSF]					number of mucinous-specific substrates whose cleavage was inhibited [1, 9]: 3 substrates
CC(C)CC(=O)N[C@H](C(=O)N[C@H](C(=O)N[C@@H](CC(C)C)[C@@H](O)CC(=O)N[C@@H](C)C(=O)N[C@@H](CC(C)C)[C@@H](O)CC(=O)O)C(C)C)C(C)C [pepstatin] (Isovaleryl-VV[Sta]A[Sta]-OH)					effect on cleavage of the mucinous-specific substrates ([1]; second mucinous cyst fluid sample, FIG. 8): block cleavage of the majority of the mucinous-specific substrates; number of additional mucinous-specific substrates whose cleavage was partially inhibited [1, 10]: 8 substrates; number of mucinous-specific substrates whose cleavage was fully inhibited [1, 10]: 20 substrates; inhibition of cleavage of gastricsin and cathepsin E fluorescent substrates [2]: fully inhibited
AGFSLPA (also: fluorophore/quencher) [AGFSL|PA]					limit-of-detection of cathepsin E (Cathepsin E [3]; fluorescence-based activity assay, FIG. 17): approximately 4 μg/mL; selectivity for cathepsin E over both cathepsin D and gastricsin (Cathepsin E [3]; initial velocity of substrate hydrolysis, 10 nM recombinant protease, 10 μM substrate): more than 100 fold; Sensitivity (Cathepsin E [4]): 70%; Specificity (Cathepsin E [4]): 92%
DEGWALQH (also: fluorophore and quencher) [DEGW|ALQH]	30	0.47			limit-of-detection of gastricsin (Gastricsin [6]; fluorescence-based activity assay, FIG. 16): approximately 600 ng/mL; selectivity for gastricsin over both cathepsins D and E (Gastricsin [6]; initial velocity of substrate hydrolysis, 10 nM recombinant protease, 10 μM substrate (FIG. 4D)): greater than 120 fold; Sensitivity (Gastricsin [7]): 93%; Specificity (Gastricsin [7]): 100%
FGIFYLNG [FGIF|YLNG, cathepsin E peptide substrate]			22	0.88	
GLYFRYE [GLY|FRYE, cathepsin E peptide substrate]			25	1.00	
HMIALYWG [HMIA|LYWG, cathepsin E peptide substrate]			10	0.40	
IKILMFYW [IKIL|MFYW, cathepsin E peptide substrate]			17	0.68	
NMKWTRVL [NMKW|TRVL, gastricsin peptide substrate]	21	0.33			
PWTWYGVK [PWTW|YGVK, gastricsin peptide substrate]	64	1.00			
VGKWSYRM [VGKW|SYRM, gastricsin peptide substrate]	22	0.34			
